We go through 5 molecules from patent publication US20140274782A1 (Stanford University, published 2014).

The target of test [1] is T1, p53 mono-methylated at lysine 382 by SET8 (UniProt P04637 1-393, monomethyl-lysine at K382).
T1 construct: also called p53K382me1; monomethylated p53
In words: Far Western on in vitro methylation reactions.

For test [2], the target named is recombinant H3 dimethylated at lysine 9 by G9a SET domain (UniProt P68431 2-136). In words: Far Western on in vitro methylation reactions.
For test [3], the target named is T2, biotinylated mono-methylated H4K20 peptide (H4 amino acids 1-23) (UniProt P62805 2-24, monomethyl-lysine at K20; biotinylated).
T2 construct: range 1-23; also called H4K20me1
Description: peptide pull-down, Western blot.

The target in test [4] is T3, biotinylated di-methylated H4K20 peptide (H4 amino acids 1-23) (UniProt P62805 2-24, dimethyl-lysine at K20; biotinylated).
T3 construct: range 1-23; also called H4K20me2
Description: peptide pull-down, Western blot. Background: Immunoblotting shows a protein as a band on a membrane.

Test [5] addresses T4, RelA mono-methylated at lysine 310 by SETD6 (293T cells) (UniProt Q04206 1-551, monomethyl-lysine at K310).
T4 construct: also called RelAK310me1; methylated RelA
Description: GSH-Sepharose pull-down from 293T nuclear extract, Western blot.

The target of test [6] is T5, 3× Flag-SIRT1 methylated by G9a at lysine 622 (293T cells) (UniProt Q96EB6 1-747, methyl-lysine at K622 (state not stated)).
T5 construct: also called methylated SIRT1; not shown: 3× Flag tag of p3×FLAG-CMV-7
T5 sequence (looked up): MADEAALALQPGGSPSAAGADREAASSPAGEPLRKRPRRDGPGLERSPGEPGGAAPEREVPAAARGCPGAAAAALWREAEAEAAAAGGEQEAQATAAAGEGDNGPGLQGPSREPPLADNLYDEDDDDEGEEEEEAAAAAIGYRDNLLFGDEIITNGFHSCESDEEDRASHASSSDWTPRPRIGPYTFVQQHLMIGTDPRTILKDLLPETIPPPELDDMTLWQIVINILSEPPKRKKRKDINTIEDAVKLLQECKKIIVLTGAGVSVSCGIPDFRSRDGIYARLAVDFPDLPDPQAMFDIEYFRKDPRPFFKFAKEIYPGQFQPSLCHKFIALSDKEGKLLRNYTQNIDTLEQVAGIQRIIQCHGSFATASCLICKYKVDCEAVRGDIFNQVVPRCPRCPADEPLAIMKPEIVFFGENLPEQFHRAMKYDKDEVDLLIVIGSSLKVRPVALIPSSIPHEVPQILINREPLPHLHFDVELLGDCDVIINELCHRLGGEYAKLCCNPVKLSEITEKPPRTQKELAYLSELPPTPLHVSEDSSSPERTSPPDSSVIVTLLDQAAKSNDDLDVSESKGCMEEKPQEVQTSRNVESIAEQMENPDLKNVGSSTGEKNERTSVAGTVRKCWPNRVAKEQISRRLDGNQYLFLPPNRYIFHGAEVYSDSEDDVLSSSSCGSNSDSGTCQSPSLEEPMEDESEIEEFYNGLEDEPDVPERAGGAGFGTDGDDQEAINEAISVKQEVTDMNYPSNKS
Description: GSH-Sepharose pull-down from 293T nuclear extract, anti-Flag Western blot.

Test [7] addresses H3 from HeLa nuclear extract (UniProt P68431 2-136). In words: GSH-Sepharose pull-down from HeLa nuclear extract, Western blot.
Test [8] concerns the target T6, recombinant p53 carrying K382R substitution (UniProt P04637 1-393).
T6 construct: also called p53K382R
Description: Far Western on in vitro methylation reactions.

For test [9], the target named is T7, RelA carrying K310R substitution (UniProt Q04206 1-551).
T7 construct: also called RelAK310R
In words: GSH-Sepharose pull-down from 293T nuclear extract, Western blot.

Test [10] addresses T8, 3× Flag-SIRT1K622R (UniProt Q96EB6 1-747).
T8 construct: not shown: 3× Flag tag of p3×FLAG-CMV-7
T8 sequence (looked up): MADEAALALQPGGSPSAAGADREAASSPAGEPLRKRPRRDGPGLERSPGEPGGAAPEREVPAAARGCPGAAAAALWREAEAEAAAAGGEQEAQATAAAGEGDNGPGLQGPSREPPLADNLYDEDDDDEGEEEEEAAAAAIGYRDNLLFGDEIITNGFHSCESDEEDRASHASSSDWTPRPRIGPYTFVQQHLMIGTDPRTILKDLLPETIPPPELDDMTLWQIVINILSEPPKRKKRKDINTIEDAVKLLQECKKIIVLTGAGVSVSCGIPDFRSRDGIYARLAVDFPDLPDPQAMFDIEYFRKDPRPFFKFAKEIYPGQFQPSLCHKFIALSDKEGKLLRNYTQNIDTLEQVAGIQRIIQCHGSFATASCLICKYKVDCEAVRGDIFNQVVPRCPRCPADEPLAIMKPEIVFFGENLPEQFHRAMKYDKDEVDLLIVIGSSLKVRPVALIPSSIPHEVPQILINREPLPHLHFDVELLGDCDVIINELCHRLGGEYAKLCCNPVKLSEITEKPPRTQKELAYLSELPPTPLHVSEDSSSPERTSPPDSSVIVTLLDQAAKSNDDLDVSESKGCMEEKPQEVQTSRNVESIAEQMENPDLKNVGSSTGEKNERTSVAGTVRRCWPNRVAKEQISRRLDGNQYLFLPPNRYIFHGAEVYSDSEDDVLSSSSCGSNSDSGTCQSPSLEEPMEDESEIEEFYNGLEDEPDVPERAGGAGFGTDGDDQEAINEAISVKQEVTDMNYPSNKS
In words: GSH-Sepharose pull-down from 293T nuclear extract, anti-Flag Western blot.

For test [11], the target named is T2, biotinylated mono-methylated H4K20 …. In words: peptide pull-down, α-Flag Western blot.
Test [12] deals with T3, biotinylated di-methylated H4K20 …. In words: peptide pull-down, α-Flag Western blot.
In test [13] the target is T1, p53 mono-methylated at lysine 382 by …. In words: Far Western, α-Flag detection (FIG. 9C).

B1: GST-tagged 3×MBTD355N (methyllysine-binding mutant) (designed binder)
chain: EEWSSSQPATGEKKECWSWESYLEEQKAITAPVSLFQDSQAVTHNKNGFKLGMKLEGIDPQHPSMYFILTVAEVCGYRLRLHFDGYSECHDFWVNANSPDIHPAGWFEKTGHKLQPPKGYKEEEFSWSQYLRSTRAQAAPKHLFVSQSHSPPPLGFQVGMKLEAVNRMNPSLVCVASVTDVVDSRFLVHFDNWDDTYDYWCDPSSPYIHPVGWCQKQGKPLTPPQDYPDPDNFCWEKYLEETGASAVPTWAFKVRPPHSFLVNMKLEAVDRRNPALIRVASVEDVEDHRIKIHFDGWSHGYDFWIDADHPDIHPAGWCSKTGHPLQPPLGPREPSSASPGG
notes: Negative control; also called GST-3×MBTD355N; point-mutant; not shown: GST tag and PreScission linker of the pGEX6P1 vector at the N end
As to B1, the binding result in test [1] was “no binding”; in test [2] it was “no binding”; in test [3], “no binding (tested: 1 µg protein and 1 µg peptide)”; in test [4], “no binding (tested: 1 µg protein and 1 µg peptide)”; in [5] it was “no binding”; in test [6] it was “no binding”. In test [7], the binding result is given as “no binding”.

B2: GST-tagged 3×MBT (three MBT repeats of L3MBTL1, amino acids 190-530, expressed as a GST fusion) (designed binder, not shown: a dimerising Fc or GST)
chain: EEWSSSQPATGEKKECWSWESYLEEQKAITAPVSLFQDSQAVTHNKNGFKLGMKLEGIDPQHPSMYFILTVAEVCGYRLRLHFDGYSECHDFWVNANSPDIHPAGWFEKTGHKLQPPKGYKEEEFSWSQYLRSTRAQAAPKHLFVSQSHSPPPLGFQVGMKLEAVDRMNPSLVCVASVTDVVDSRFLVHFDNWDDTYDYWCDPSSPYIHPVGWCQKQGKPLTPPQDYPDPDNFCWEKYLEETGASAVPTWAFKVRPPHSFLVNMKLEAVDRRNPALIRVASVEDVEDHRIKIHFDGWSHGYDFWIDADHPDIHPAGWCSKTGHPLQPPLGPREPSSASPGG
notes: Used in solution (peptide pull-down, Far Western, peptide array) and coupled to GSH-Sepharose (protein pull-down); also called GST-3×MBT; 3xMBT
As for B2, the binding result in test [8], in test [9] and in test [10] was “no binding” throughout.

B3: 3×MBTD355N-Flag (C-terminally Flag-tagged 3×MBTD355N) (designed binder, not shown: small tags and cut ends)
chain: EEWSSSQPATGEKKECWSWESYLEEQKAITAPVSLFQDSQAVTHNKNGFKLGMKLEGIDPQHPSMYFILTVAEVCGYRLRLHFDGYSECHDFWVNANSPDIHPAGWFEKTGHKLQPPKGYKEEEFSWSQYLRSTRAQAAPKHLFVSQSHSPPPLGFQVGMKLEAVNRMNPSLVCVASVTDVVDSRFLVHFDNWDDTYDYWCDPSSPYIHPVGWCQKQGKPLTPPQDYPDPDNFCWEKYLEETGASAVPTWAFKVRPPHSFLVNMKLEAVDRRNPALIRVASVEDVEDHRIKIHFDGWSHGYDFWIDADHPDIHPAGWCSKTGHPLQPPLGPREPSSASPGG
B3: the binding result in test [11] and in [12] was “no binding” in each case.

B4: GST-3× Flag-3×MBTD355N (designed binder, not shown: a dimerising Fc or GST; small tags and cut ends)
chain: EEWSSSQPATGEKKECWSWESYLEEQKAITAPVSLFQDSQAVTHNKNGFKLGMKLEGIDPQHPSMYFILTVAEVCGYRLRLHFDGYSECHDFWVNANSPDIHPAGWFEKTGHKLQPPKGYKEEEFSWSQYLRSTRAQAAPKHLFVSQSHSPPPLGFQVGMKLEAVNRMNPSLVCVASVTDVVDSRFLVHFDNWDDTYDYWCDPSSPYIHPVGWCQKQGKPLTPPQDYPDPDNFCWEKYLEETGASAVPTWAFKVRPPHSFLVNMKLEAVDRRNPALIRVASVEDVEDHRIKIHFDGWSHGYDFWIDADHPDIHPAGWCSKTGHPLQPPLGPREPSSASPGG
B4: the binding result in test [13] is reported as “no binding”.

B5: 3× Flag-3×MBTD355N (designed binder)
chain: EEWSSSQPATGEKKECWSWESYLEEQKAITAPVSLFQDSQAVTHNKNGFKLGMKLEGIDPQHPSMYFILTVAEVCGYRLRLHFDGYSECHDFWVNANSPDIHPAGWFEKTGHKLQPPKGYKEEEFSWSQYLRSTRAQAAPKHLFVSQSHSPPPLGFQVGMKLEAVNRMNPSLVCVASVTDVVDSRFLVHFDNWDDTYDYWCDPSSPYIHPVGWCQKQGKPLTPPQDYPDPDNFCWEKYLEETGASAVPTWAFKVRPPHSFLVNMKLEAVDRRNPALIRVASVEDVEDHRIKIHFDGWSHGYDFWIDADHPDIHPAGWCSKTGHPLQPPLGPREPSSASPGG
notes: also called N-terminally Flag-tagged 3×MBTD355N; not shown: made by PreScission cleavage of the GST version
On to B5, for which the binding result in test [11], in test [12] and in [13] was “no binding” in each case.
